Assays:
[1] = biological target: human plasma-derived Factor IXa (human) (UniProt P00740); assay: cell-based or functional assay
[2] = biological target: human coagulation Factor IX (human) (UniProt P00740); assay: ITC, 37 °C, pH 7.4, antibody injected into FIX
[3] = biological target: human coagulation Factor X (human) (UniProt P00742); assay: ITC, 37 °C, pH 7.4, antibody injected into FX
[4] = biological target: human plasma-derived Factor IXa (human) (UniProt P00740); assay: ITC, 37 °C, pH 7.4, antibody injected into FIXa
[5] = biological target: human plasma-derived Factor IXa (human) (UniProt P00740); assay: FXa generation assay at eight OA antibody concentrations, fit to the quadratic binding equation

Sequence of human plasma-derived Factor IXa (human) (P00740 47-191, chain 1 of 2): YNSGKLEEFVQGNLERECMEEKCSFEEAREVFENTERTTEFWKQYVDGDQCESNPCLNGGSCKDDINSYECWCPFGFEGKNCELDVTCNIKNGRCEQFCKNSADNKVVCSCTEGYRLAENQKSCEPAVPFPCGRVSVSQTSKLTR
Sequence of human plasma-derived Factor IXa (human) (P00740 227-461, chain 2 of 2): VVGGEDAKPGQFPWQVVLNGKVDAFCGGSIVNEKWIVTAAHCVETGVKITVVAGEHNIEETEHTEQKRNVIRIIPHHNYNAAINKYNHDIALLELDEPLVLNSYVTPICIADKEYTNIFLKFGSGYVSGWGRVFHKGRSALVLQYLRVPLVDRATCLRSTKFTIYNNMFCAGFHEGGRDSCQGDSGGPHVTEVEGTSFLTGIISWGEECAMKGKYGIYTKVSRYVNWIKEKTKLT
Sequence of human coagulation Factor IX (human) (P00740 47-461 T194A limits assumed): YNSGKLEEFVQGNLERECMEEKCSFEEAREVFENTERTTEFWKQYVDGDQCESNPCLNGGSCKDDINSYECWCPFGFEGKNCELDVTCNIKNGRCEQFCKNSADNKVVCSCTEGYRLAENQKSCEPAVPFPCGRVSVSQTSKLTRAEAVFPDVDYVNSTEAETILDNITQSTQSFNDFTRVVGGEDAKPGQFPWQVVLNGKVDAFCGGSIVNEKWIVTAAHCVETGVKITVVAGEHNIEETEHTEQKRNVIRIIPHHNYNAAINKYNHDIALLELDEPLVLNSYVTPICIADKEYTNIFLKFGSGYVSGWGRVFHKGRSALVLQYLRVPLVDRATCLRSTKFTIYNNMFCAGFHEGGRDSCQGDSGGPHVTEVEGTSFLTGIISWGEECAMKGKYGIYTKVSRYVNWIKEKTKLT
Sequence of human coagulation Factor X (human) (P00742 41-179, chain 1 of 2): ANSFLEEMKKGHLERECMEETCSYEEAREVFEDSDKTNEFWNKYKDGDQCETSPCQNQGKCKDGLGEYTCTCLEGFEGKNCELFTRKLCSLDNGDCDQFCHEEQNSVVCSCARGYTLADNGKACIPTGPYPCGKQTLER
Sequence of human coagulation Factor X (human) (P00742 183-488, chain 2 of 2): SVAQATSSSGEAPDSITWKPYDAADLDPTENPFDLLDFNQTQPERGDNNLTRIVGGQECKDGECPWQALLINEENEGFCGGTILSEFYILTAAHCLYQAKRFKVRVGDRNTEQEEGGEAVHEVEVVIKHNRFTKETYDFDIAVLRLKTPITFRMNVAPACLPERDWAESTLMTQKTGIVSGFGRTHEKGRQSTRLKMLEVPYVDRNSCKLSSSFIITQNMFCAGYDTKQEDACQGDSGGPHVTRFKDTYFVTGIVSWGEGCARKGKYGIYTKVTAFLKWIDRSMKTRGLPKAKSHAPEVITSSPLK

Substance	Maximum stimulation (fold), FXa generation assay with bispecific antibody; maximum at 10480 nM [1] [fold]	Kd [2] [nM]	Kd [3] [nM]	Kd [4] [nM]	Stimulation Index, FXa generation assay, estimated at full FIXa saturation [1] [fold]	Kd [5] [nM]
ACE910 (bispecific antibody)	891	2770	2420	1970	–	–
one-armed (OA) ACE910 anti-FIXa antibody	–	–	–	–	1370	1100

Source: patent US20260193376A1
